Experimental data reported in paper PMC9665036.

Assays:
[1] = target: SpyCatcher-AP205 capsid virus-like particle (cVLP) (Acinetobacter phage AP205); assay: covalent SpyTag-SpyCatcher coupling, SDS-PAGE densitometry; SpyTagged sE2 mixed with SpyCatcher-AP205 cVLP at molar ratio 2:1 (antigen per cVLP binding site), 36 h at 4 °C; Coomassie SDS-PAGE, densitometry (ImageQuantTL)
[2] = target: oligomeric soluble HCV E2 (sE2, Con1 isolate, genotype 1b) with C-terminal 6x His tag and SpyTag, SEC peak 2 (Hepatitis C virus, isolate Con1 (genotype 1b)) (UniProt Q9WMX2); assay: SEC; analytical SEC of the purified sE2 SEC peak fractions against marker proteins of known size
[3] = target: oligomeric soluble HCV E2 (sE2, Con1 isolate, genotype 1b) with C-terminal 6x His tag and SpyTag, SEC peak 2 (Hepatitis C virus, isolate Con1 (genotype 1b)) (UniProt Q9WMX2); assay: non-reducing SDS-PAGE; SEC peaks of sE2 in SDS-PAGE, Coomassie staining, with or without reducing agent (DTT)

| Substance | coupling efficiency [1] | stoichiometry N [2] | stoichiometry N [3] |
| --- | --- | --- | --- |
| monomeric soluble HCV E2 (sE2, Con1 isolate, genotype 1b) with C-terminal 6x His tag and SpyTag, SEC peak 1 (from UniProt Q9WMX2 384-661) (domain or fragment) | 60% | – | – |
| oligomeric soluble HCV E2 (sE2, Con1 isolate, genotype 1b) with C-terminal 6x His tag and SpyTag, SEC peak 2 (from UniProt Q9WMX2 384-661) (domain or fragment) | 60% | 4 | 2 |
